Source: publication PMC3256971 (The Journal of Experimental Medicine, 2011)
One block for each molecule: values may come before it.

Tests used:
[1] = target: soluble I-A^g7 (mouse); assay: SDS stability of the complex
[2] = target: soluble I-A^g7 (mouse); assay: radioligand binding
[3] = tested on: B16A-dKO mice; assay: Immunization and IL-2 ELISPOT in B16A-dKO mice; format: in vivo, mouse; conditions: 10 nmol in CFA, restimulation at 10 µM, Fig. 4 c
[4] = tested on: I-A^g7; conditions: ref Yu et al., 2000; Levisetti et al., 2007; cited from earlier work
[5] = tested on: I-A^g7; conditions: ref Yu et al., 2000; Levisetti et al., 2007; cited from earlier work; remark: listed apart in the source

Molecule: nested B:12–21 peptide with flanking residues
IC50 [2]: 500 nM

Molecule: SHLVEALYLVCGERG [B:9–23]
IL-2 ELISPOT response to register 1 after immunization [3]: detected a response to register 1 similar to that found in NOD mice
binding affinity to I-A^g7 [4]: very low affinity
rate of dissociation from I-A^g7 [5]: fast rate of dissociation

Molecule: TEGEALYLVCGEGGS [nested register 2:13–21 peptide (insulin B:13–21 with flanking residues)]
IC50 [2]: 700 nM

Molecule: TEGVEALYLVCGGGS [nested register 1:12–20 peptide (insulin B:12–20 with flanking residues)]
IC50 [2]: 1400 nM

Second part, the molecule after the results:

percent SDS stable [1]: 70%
Molecule: radioactive peptide bearing the nested register 2:13–21 sequence (added N-terminal tyrosine, B16 tyrosine to phenylalanine)

percent of the bound peptide lost in the first 20 min [2]: > 50%
Molecule: radioactive peptide bearing the nested register 1:12–20 sequence (added N-terminal tyrosine, B16 tyrosine to phenylalanine)

IC50 [2]: 5500 nM
Molecule: TEGALYLVCGERGGS [nested register 3:14–22 peptide (insulin B:14–22 with flanking residues)]
